From PMC6260798 (Biochemistry, 2018) come the findings set out here.

Read-outs that look alike come from different tables or passages of the source.

Assay [1] deals with T1, UreE (Helicobacter pylori, UniProt Q09064).
T1 chain: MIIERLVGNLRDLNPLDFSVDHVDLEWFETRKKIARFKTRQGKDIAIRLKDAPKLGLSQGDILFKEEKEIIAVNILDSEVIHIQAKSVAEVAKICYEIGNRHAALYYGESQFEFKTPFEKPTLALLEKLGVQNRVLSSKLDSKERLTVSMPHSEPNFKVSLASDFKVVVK
In words: ITC.

The target in assay [2] is T2, Helicobacter pylori UreE homodimer (UreE2) (Helicobacter pylori, UniProt Q09064 1-170).
T2 sequence: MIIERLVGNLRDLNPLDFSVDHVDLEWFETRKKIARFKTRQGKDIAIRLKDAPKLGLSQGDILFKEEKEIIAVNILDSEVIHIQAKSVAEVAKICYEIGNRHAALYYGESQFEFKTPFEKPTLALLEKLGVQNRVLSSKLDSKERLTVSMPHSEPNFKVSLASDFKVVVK
In words: ITC.

Assay [3] deals with T2, Helicobacter pylori UreE homodimer …. In words: SEC-MALS.
For assay [4] the target is unchanged. In words: ITC. The source holds these as a separate data set.
Assay [5] concerns the target T1, UreE. Description: fluorescence titration.

B1: HypA (protein)
chain: MHEYSVVSSLIALCEEHAKKNQAHKIERVVVGIGERSAMDKSLFVSAFETFREESLVCKDAILDIVDEKVELECKDCSHVFKPNALDYGVCEKCHSKNVIITQGNEMRLLSLEMLAE
modifications: Ni,Zn-HypA
Take B1: the equilibrium dissociation constant (Kd) in assay [1] is around 0.6 nM.

B2: Helicobacter pylori HypA (wild type; apo,Zn-HypA or Ni,Zn-HypA) (natural protein, UniProt P0A0U4 1-117, looked up)
chain: MHEYSVVSSLIALCEEHAKKNQAHKIERVVVGIGERSAMDKSLFVSAFETFREESLVCKDAILDIVDEKVELECKDCSHVFKPNALDYGVCEKCHSKNVIITQGNEMRLLSLEMLAE
In the case of B2, the figures for the Kd in assay [2] and in assay [4] were 1200 nM and 900 nM, respectively. Besides, the “stoichiometry N” value in assay [2] came out at 1.4 Sites; in assay [3], 1 HypA per UreE2; in assay [4], 1.4 Sites.

B3: HypA (protein)
chain: MHEYSVVSSLIALCEEHAKKNQAHKIERVVVGIGERSAMDKSLFVSAFETFREESLVCKDAILDIVDEKVELECKDCSHVFKPNALDYGVCEKCHSKNVIITQGNEMRLLSLEMLAE
modifications: apo,Zn-HypA, NHS640-labelled UreE2
Take B3: the Kd in assay [5] is around 2000 nM.
